Data published in a protein production outcome set (Wang et al. 2014).

test: label from the status in PepcDB records
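Further: failed if final PepcDB status was selected cloned or expressed and not failed if soluble or beyond.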

**Q.** Which protein production does the source give for “MKIKFKRLDYQEQCRDQILGVFKGIDLKEPENDAQRISNPVFEIGAIKDLLLENIENLRSKQKITQGSVGIDKSLNCDILMETGTGKTFCFLECVYALHKNHHLSKFIVLTPSNAIKLGVLKSVEITREFFKSEYSNTHLESYEDIERFILASNHKCCVLVMTFSAFNKEKNTINKSCLENTNLFNGATSYMQALVSMRPIVIMDEPHRFLGDKTKKYLEQLNALLTLRFGATFKDDYNNLIYTLDSKKAFDCALVKSISVASVGESNECFLELKGIEKKEAAINYTDLENKTQSVKVKEHDNLGVVTQISALEDYIVEKITKTEIRFLNGFNLLLDQKEPFSHLLEGEQEVMLKEAIKSHFEREEGLFKKGIKALCMVFISGVNSYLSENEKPAKLALLFEKLYQQKLEEVLKKPLDENYRAYLECTREDIKKVHGGYFAKSKKEGDETKTIELILKEKEKLLSFDSDLRFIFSQWALQEGWDNPNVMTICKLAPSHSNITKLQQIGRGLRLAVNDKGERITKEHADFDFVNELVVIVPQVEGDFVGAIQQEISEHSLIKQEFSAEELEKSGVVKKGRYGFLLETLEGLGFGEKTGDENFKLTLNQNEFLEKEPELEKLKDEKYLDFEKLKDFLKDRLIGNSRVRDKNERKSEKIKINKENFKKFETLWESLNHQARIAYAIDSESLIDEIVKNINSSFNVSSKIVSVTTHKKVETMGNNAKTEIFERENACVWSLHEFISALSNKVKLSFKSVAKVLENIDENKFNEIKKNEQEGLRRLEELFLEIIYQNIKDKISYQMRETTIKNRKNDAFYDEKGEIREFLDGSLGADKYEIKNSSVREKCLYENFMQVDSEIEKDTIEESNDTKIIVFGKLPRVKIPIGLNQTYSPDFGYVVENNDKKVLLVVETKGVDKKSELRPEEERKISTAKKFFEALKKQGVNIEYKTKMEKDQLSALINEVLNRKD” here?
**A.** Its protein production is “failed”.

**Q.** Which protein production does the source give for “MKIKKNMIKGILLTTIVSFLAKIAADYLPSLGGEAIAMLLGILIGNTVFKDEKWMPGIKWAEKFPIEIGIALMGLTVTLRTISSLKIQGVIFILFQMMATILFVLWVGRRFIKVPSESAMLMASGNAVCGSSAIAAVAPAIRASDDQRRTAVATVSLSGVVLLFLLPVIGPNIFHGNNLLIGALIGGTVQSVGQVVGTASLVNQAVVTYATLFKMLRVILLSVVVFVFARFADRTRADEIKTDSKKVAVPWFVIVFIIFVFINSFFNLSNTVNTGAKSIANFFGIVNLAGIGLNLKWQTVKNSGQKFMIYGLVTVCFQILFAVLMINVLFG” here?
**A.** Its protein production is “failed”.

**Q.** Which protein production does the source give for “MKIKRLYLLGAWLLLGVSVSAQITSIQPQPQQVLSQARNLSLPDTYLIVGDTEANTHAVSALKTLLAGKHSDKNGFRIYIGEKGDKAIRKFARQIPNHKEGYYLAINDKEIVLAGQDGRGTFYALQTLAQLLNDNQLPVVEIKDYPSVRFRGVVEGFYGTPWSHEARLRQLKFYGENKMNTYIYGPKDDPYHSSPNWRLPYPEKEALQLQELVKVANENEVDFVWAIHPGQDIKWNQEDRDLLLAKFEKMYDLGVRSFAVFFDDISGEGTNPNKQAELLNYIDEKFVKVKPDVTPLVMCPTEYNKSWSNPKGNYLTTLGEKLNPSIQIMWTGDRVISDITKDGIAWINARIKRPAYIWWNFPVSDYVRDHLLLGPVYGNDTQIADQMSGFVTNPMEHAEASKIAIYSVAGYAWNPEKYNSEQTWKDAIRTILPSAADELEFFAAHNSDLGPNGHKYRRDESVELQPLSQRFLDSYLKNGSYTEADFNALEATFGKMVESGDVLMTNTGNRPLIVEMMPWLRQFKLLGETGQEVLAMAKAYKEGDNSLFIRKYRHVKALQQQMFQVDQTYNQNPYQPGVKTATKVIKPLIDQTFTTVTERYNKEHGTQLDAATDYMPHKLVSDVEQLRNQPLQIKTNRVLVSPANEVIKWGAGCTLTIELDQAYPGENLDIDFGKPDVAAWGQLEISADGKEWQKVDFKQEKNRITLNLKQTPVKAVRFSNVGNAEQEVYLRRFMITLDK” here?
**A.** Its protein production is “failed”.

**Q.** Which protein production does the source give for “MKIKVALLDKDKEYLDRLTGVFNTKYADKLEVYSFTDEKNAIESVKEYRIDVLIAEEDFNIDKSEFKRNCGLAYFTGTPGIELIKDEIAICKYQRVDVIFKQILGVYSDMAANVATISGENDKSSVVIFTSPCGGVGTSTVAAACAIAHANMGKKVFYLNIEQCGTTDVFFQAEGNATMSDVIYSLKSRKANLLLKLESCIKQSQEGVSYFSSTKVALDILEISYADIDTLIGNIQGMDNYDEIIVDLPFSLEIEKLKLLSKAWRIIVVNDGSQLSNYKFMRAYESVVLLEQNDDINIIRNMNMIYNKFSNKNSEMLSNISIKTIGGAPRYEHATVRQIIEALTKMEFFEEILQ” here?
**A.** The protein production was “not failed”.

**Q.** With “MKILKISLTVVVEVALIYLFSLLVGWSFMEAFFLGSLAIFGAIWLIALNINQNNNIDHTIYKTGTVKPFQMTWGPYTTGATSLTAFSFIITTIYYLPYFL” as the sequence, how does the protein production read?
**A.** Its protein production is “failed”.

**Q.** For “MKILVTSGGTSEAIDSVRSITNHSTGHLGKIITETLLSAGYEVCLITTKRALKPEPHPNLSIREITNTKDLLIEMQERVQDYQVLIHSMAVSDYTPVYMTGLEEVQASSNLKEFLSKQNHQAKISSTDEVQVLFLKKTPKIISLVKEWNPTIHLIGFKLLVDVTEDHLVDIARKSLIKNQADLIIANDLTQISADQHRAIFVEKNQLQTVQTKEEIAELLLEKIQAYHS”, which protein production is on record?
**A.** The protein production was “not failed”.

**Q.** Which protein production does the source give for “MKIMIFICGEGLGHTSRCLALGKELLNAGHEIKFGAYGYSKELVEKTGYTAQEIPSEIKLVGKAGSLDLTGSIEATLKSAQLLGGPKLLKLLREFKPDVVVSDSYYLGTLAAMVLKLPVYLIINQSNMEEFFKNRGLEHHHHHH” here?
**A.** Its protein production is “not failed”.

**Q.** With “MKINKELYSIALVLTVLFFVFSILISSVASAAQVTRIGSGSDPAIYGNKIVWTSGGVIHLYDLTSKTGTTVSSSAASHPAIYGNKLVWHDKSSGVPRLTVYDIPSGARSYITQDVGNYSFPAIYGNRIVWSANYNRSSYSYNVYMRDISTSTQVWIAQGENPEIYETKITYGYDDDDGRNIAVYDVNTKETINVHHSSQVFNPHMYGNKVIWSNFYTRSGFIQMYDLVAKKAIDVTSDNTGNTLYGSDTIDAGDDTGTHIDISGDEIVYSKSGDDQFGYAGVYVYDIPSAKSTPVYIYPRGTHTTPDIYNDTIVWGIDSSYGGVNDTGIYICDLSVTNTLPPVAEFTANTTYGAAPLVVLFTDASTGGVPTSWIWDFGHGIDSKHVMNATHTFTKPGNYTISLTAGNDAGNNKVMKPNYIVVTNPFPVANFSSNVTHGYPPLSIQFTDLSQNATGWNWDFGDGSNSTQRSPVHEYADSGIYSVNLTAINENGTDSKLTTITVMQLVGVGPYAYITNSGDNNVSVIDTTTNKVTAMIPVGNYPMGVAVTLDGKKVYVTNFFGRTISVIDATKNKVTATIPLGNSPRGVAVSPDGKRVYVPHHEVGNPSNNTTLIIDTDTNEVEATVLVGEVPFGVAVTLDGKKVYVTNLRDKTVSVIDTATNTVIATIPVGDDPCGVAISPDGKKVYVGNRGDSTVSIIDTATNTVTATVDLENSPYGIVVNPTGTKVYVAGTKKAYAAGTVDGFVSVIDTATNKVTATIPVGNSPFGVAVTPDGSKVYVANQLRDTVSVIDTSTNKVTATMNVGRNPNSFGQFIGSLQAQPIFPVANFSSNVTEGYAPLTVKFNDMSQKATSRIWDFNGDGQLDSSNINPVYIYANPGTYTVNLTVSNKNGTDSKTAAINVLTPSSSSGVSSHSSSSGG” as the sequence, how does the protein production read?
**A.** Its protein production is “failed”.

**Q.** Which protein production does the source give for “MKINLLQYIAGFLGFIALFYGIFSLIREYHFLEIKSLEVFVLIFFGFFAITYAFTDRIMIEKPFALTFAVILFYLSLITPLPLTNKILLITGGIIETQLASRKGVKGTVYIILGILTLIYFVYAHFINLSSILSLIGIGLSSLIIVLGNRDRKVKGISYLTYPVGIPLVVYGINGFFPLSINPIFIIVGLAIVLLNLLPSKGIPSSDYDLKLDQKLCNDIQRSECKDVIQIYKKYMVYIPQHCLDKVVLCTINQNDMQNFNLVINNSLARSVAERYVDKMSPEMLYSLALLSSRKKELLELACKKGYKKACEQTKPILDMKNWDPKVWVGKEIYNYNIVDIIGVGGTSYILKGEKDGNFYALKIPLINYLNNVMDLVGESSKLIELSNKSPYIVRLYAIYADQLDVKEILGGNPEIYYNKPPMLVIELMKGGSINDVINVKELVKSEYWKKIVFITTARIAEALETIHSEGYVHCDVKPQNVLFNEKLPPNARLAYDNLKNGKIIVKLADLGSAVKAGEKPFSYTPAYVSFDLVKSTAFGGVSPMADIYALGATVYKLLTGVTLNTNVMIEAMDKFEANKDIRYLDNSLYSTRNLDLLRKYVDKNTYLFISKMVDPDPNKRPTSKEIKEFFYFRV” here?
**A.** Its protein production is “failed”.

**Q.** Which protein production does the source give for “MKINWAENLRQNVHQLAESLGNLFVESFHYLALFAIGAVTAWAAVMEFLQMIEVGHIKIDDILLLFIYLELGAMVGIYFKTNHMPVRFLIYVAITALTRLLISNVSHHNPPDLGIIYLCGGILLLAFAILVVRYASSQFPSVKIEHPQRKIGAGSGEHPEVEKGEL” here?
**A.** The protein production was “failed”.

**Q.** Which protein production does the source give for “MKIPSVFMLEQQKASLQLHVKQLANEAIQKSAPSAWFEVLYAEAQGDTTQIPWAKLTPHPYLQEWLTNHQPFPSGQKALVIGCGLGDDAEALAKLGFAVTAFDISPTAIAWCGQRFPNSNVNYIVADLLAIPPQWHLAFDFVFECRNIQALPLNIRAEVITSIASVVAPDGTLLLINRVRLEHHHHHH” here?
**A.** The protein production was “failed”.

**Q.** With “MKIRTIARASLLSAAIALAVTGCNSEPDMSQEDIQYISHVDQARFFQRQGELKASTIEARSAIDLQPNRTAPYFVIIHNLLTAGDAANAERQLDKLLENTNIEELGQSERNQAALIRAEARILQGKHQEALESLDQISSPSPDQQLQADNLKGRAWLTSGDFDKAEEAYQSAFDKHSNNVVAMVGLSRVATAKGDFDTAKERLEKAIEIDAEHEDVWLWRAQFAHAQQQWAEAEQAYIRALETIGQFDVMTFRKYQTISALITVLREQGKSAEAFVYEEILAKSGPGTIKSNLEAAASAYNDGDLNTAARYLQEVLNQVPNHQQSALMLGVIRYRQGRPEEAEKLLAPLADMENADEVRKLLAATRISMRDPAGAKSLLEDLEGSDADPQTLALVGIASLASGDDQSGRQLLEKSLELAPDNHNLRLRYAAYLTQTRDFANAIKQARQIPSDATEALQATILTSQAQALSGNSQTATDTLDTWLKANPDSMAALIARGNLASSLNNTQQAASYFERAHKQHPEEAAPLVALGNLAREQQNTEQAIAWYRQAVETNPNNLPAIQALAGVMKRDQLTGLMQEISSKHPEANGPRLILLESALINNDTLQADELTARLMEREREDQPSPAEPLVAAVYEGIATQMAQRENSERALEILSRGRTLFPENEAIALKVAAIEFSNGNATAARSALQDAKQHHPDSPAPYQVEASYYENQGEHQQAAELYQLALAKRQTAELAIAHARALSNAGRSQNSIEALQEANKQFPNNSSILLTLALQTQQAGQTDAAIEHYQQVLQLTPDNALALNNLAWLYYEAGNSEAASLAKRAYELVPENAAIADTYGWILFEAGEHEQSLAVLERAHSLAPDSQEIAMHLAEAYRATGRTDAAQQIMDKFSTGNNG” as the sequence, how does the protein production read?
**A.** The protein production was “failed”.

**Q.** For “MKISTKDLVLCALFAAISCVLAQISIQLPFSPVPFTMQVMAVYLAGIILGAKKGFISQLVYVVLGAIGAPVFANFTGGVGAILGPAGGFIIAFPFMALIVGCVADKCRTKAYIIISMVLASVVCYVFGALWLVLVTKISFALAIKTAVLPFILFDMLKIIIVSIIGINIRSRIISGGLA”, which protein production is on record?
**A.** The protein production was “failed”.

**Q.** For “MKKAGILGLIITIIVLVPVGLGFNWYHSNYGTKTYYTQITTKGERKTGKDDSGKPYVYYHYSQPGYSDNGVKKELTFDSVLPRSLKMHAYLKVGYNDKRQQVINWEKVNQKDIPQAALNRIQKLEHHHHHH”, which protein production is on record?
**A.** The protein production was “not failed”.

**Q.** For “MKKDVLIFVKGTQEYPINSLENSIEFFTEGTFYKKGESFYVTYKESELTGLEGTTTTFKIQPNHITLIRYGDVTSTLIFEPGKRHISTYITEEGVIMIGVYTKKMKVDLTENGGEVFVEYAIDLDSHMMSENDFLLKIKEAGVKNLEHHHHHH”, which protein production is on record?
**A.** The protein production was “not failed”.
